Test in all cases: SPR, kinetics, Fab over captured mutant
Background: SPR reads the build-up and loss of mass on a sensor chip optically.

One test has as its target T1, shCD131 K362A (human, UniProt P32927 17-438).
T1 construct: C-terminal 6xHis
T1 sequence: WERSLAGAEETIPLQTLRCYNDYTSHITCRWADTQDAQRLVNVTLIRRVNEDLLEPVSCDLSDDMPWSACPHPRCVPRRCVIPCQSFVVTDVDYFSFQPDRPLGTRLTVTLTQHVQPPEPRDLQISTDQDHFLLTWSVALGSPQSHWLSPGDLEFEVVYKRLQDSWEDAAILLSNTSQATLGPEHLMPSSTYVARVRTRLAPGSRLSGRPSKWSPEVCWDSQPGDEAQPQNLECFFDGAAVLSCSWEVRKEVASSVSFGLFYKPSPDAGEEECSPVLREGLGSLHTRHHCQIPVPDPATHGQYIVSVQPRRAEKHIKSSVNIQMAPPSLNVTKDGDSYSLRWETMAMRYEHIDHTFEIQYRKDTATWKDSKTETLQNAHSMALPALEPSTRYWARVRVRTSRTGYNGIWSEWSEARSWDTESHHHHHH
The procedure:
(§1) As shβc is a dimer, kinetics assays were performed with shβc captured on the sensor surface, and purified Fab injected as the analyte. Avidity effects were avoided by the use of Fab rather than whole IgG.
(§2) shCD131 was captured on spots 1 and 5 of each flow cell for 2 minutes at a concentration of 0.4 μg/ml. […] For some analysis purified Fab was injected over each flow cell for 3 minutes and dissociation was monitored for a further 10 minutes. Regeneration of the surface was performed after each cycle with a 40 second injection of 25 mM glycine, pH 2.0. The analysis was performed with Fabs at several concentrations between 100 and 0.31 nM, with each concentration analyzed twice and in random order. The analysis was performed at a flow rate of 30 μl/min in HBS-EP buffer (10 mM Hepes, 150 mM NaCl, 3 mM EDTA, 0.005% Tween 20, pH 7.4) at 37° C. Responses from spots 2 and 4 of each flow cell, (in which shβc was not captured, but otherwise treated identically), were subtracted from those of spots 1 and 5 respectively to produce reference subtracted data. Reference subtracted responses from a blank injection comprising buffer alone were subtracted from the resultant sensorgrams to produce double referenced data suitable for kinetic analysis. Double-referenced sensorgrams were fitted using non-linear regression to a model describing 1:1 kinetics, including a term for mass transport limitation. The Rₘₐₓ value was fitted locally to account for slight deviations in the level of sCD131 captured, with association rate (kₐ), dissociation rate (kd) and equilibrium dissociation constant (KD) fitted globally.
(§3) Mapping of the shCD131 epitope was performed by measurement of the affinity of Fabs for various alanine point mutants of shCD131 essentially as described above, with the following exceptions. Each shCD131 mutant was captured for 120 seconds at concentrations between 1 and 5 μg/ml. For kinetic analysis, purified recombinant Fabs were injected for 2 minutes, and dissociation was monitored for a further 2 minutes. […] Fab concentrations ranged from 16 μM to 3.9 nM in two-fold dilutions.

The next test deals with T2, shCD131 M363A (human, UniProt P32927 17-438).
T2 construct: C-terminal 6xHis
T2 sequence: T1 sequence with A346K, M347A
The procedure:
as §1, §2, §3

Another test deals with T3, shCD131 E366A (human, UniProt P32927 17-438).
T3 construct: C-terminal 6xHis
T3 sequence: T1 sequence with A346K, E350A
On the procedure:
as §1, §2, §3

The next test deals with T4, shCD131 I424A (human, UniProt P32927 17-438).
T4 construct: C-terminal 6xHis; also called 1424A
T4 sequence: T1 sequence with A346K, I408A
The procedure: as §1, §2, §3

Where a chain is given by its changes, count along the chain named. Several values for one entry are separate records, joined by “and”; a condition that tells them apart may be missing. Identical values can stand only once.

We go through one molecule from patent publication US20190062438A1 (CSL, published 2019).

B1: 9A2 Fab (Fab, V domains shown)
VH: EVQLLESGGGLVQPGGSLRLSCAASGFTFSHYHMLWVRQAPGKGLEWVSSIRSSGGFTYYADSVKGRFTISRDNSKNTLYLQMNSLRAEDTAVYYCARFYDSFFDIWGQGTMVTVSS
VL: DIQMTQSPSSVSASVGDRVTITCRASQGISSWLAWYQQKPGKAPKLLIYAASSLQSGVPSRFSGSGSGTDFTLTISSLQPEDFATYYCQQANSFPITFGQGTRLEIKR
notes: also called recombinant Fab of 9A2
A word on the Kd: it is the constant that tells how readily two partners part at equilibrium. With B1, the Kd is 64.8 nM and 65 nM in the test with shCD131 K362A; 171 nM with shCD131 M363A; 32 nM in the test with shCD131 E366A; 126 nM with shCD131 I424A.
